Assay results published in article PMC7613929 (Nature microbiology, 2022).
Where “and” joins values, the source holds several entries; their conditions need not be identical. Identical values can stand only once. Ends that are not written are not given here.

Assays:
[1] = tested on: FtsA cysteine mutant E. coli strains; assay: In vivo cysteine cross-linking, Western blot; format: cell-based, Escherichia coli; conditions: Western blot against 3x HA-tag
Method: Strains were grown to exponential phase (OD600 = 0.2-0.4) in LB from overnight cultures, and 0.9375 OD units harvested using centrifugation at 4°C. Cells were kept on ice for the duration of the experiment, unless stated otherwise. Cells were washed in 500 μl PBS and resuspended in 50 μl PBS. 1.25 μl DMSO or cross-linker (dBBr: Dibromobimane, BMOE: Bismaleimidoethane, BMB: 1,4-bismaleimidobutane or BMH: Bismaleimidohexane) in DMSO (20 mM stock) were added. Samples were incubated for 10 min and quenched by adding 1 μl 2-ME (1.43 M stock in MPW). Cells were resuspended in 50 μl lysis buffer [1 mM EDTA (pH 7.4), 14.3 mM 2-ME, cOmplete EDTA-free Protease Inhibitor Cocktail (Roche), 0.25 U/μl Benzonase (Merck) and 0.5 U/μl ReadyLyse Lysozyme (Lucigen) in B-PER (ThermoFisher)]. Samples were incubated at RT for 5 min. 50 μl of 2x SDS sample loading buffer supplemented with 3 % v/v 2-ME were added. Samples were incubated at 95°C for 5 min, and the equivalent of 0.1875 OD units of cells was analysed by SDS-PAGE. Western blotting was performed using a Trans-Blot turbo (BioRad) with the corresponding Midi 0.2 μm PVDF transfer pack. Blots were run at 25 V and 2.5 A for 7 min. Membranes were blocked in PBS + 5 % milk for 30-40 min, washed in PBS and incubated with anti-HA-Peroxidase antibody (Roche 12013819001) (1/1000 in PBST + 5 % milk) at RT for 1-1.5h. Membranes were washed thoroughly with PBST, developed using the ECL Prime Western blotting detection kit (Amersham/Cytiva) and imaged on a Gel DocTM XR+ (Bio-Rad). Presented images were contrast-adjusted for display purposes.

FtsA = molecular target: T1, FtsA (Escherichia coli, UniProt P0ABH0); assay: SPR, EcFtsN^1-32 truncations and mutations binding to immobilised FtsA; conditions: SPR equilibrium response; peptide 1:2 dilution series from 20 μM; mean ± SEM (n ≥ 2 for each construct); asterisk: maximum response fixed during fitting, approximate values; ND: not determinable; read-out: SPR K^eqd
T1 construct: made in house; host or cells: E. coli C41(DE3)
Method: SPR was performed using a Biacore T200 using CM5-sensor chips (Cytiva). Reference control and analyte channels were equilibrated in binding buffer. […] After reference and buffer signal correction, sensogram data were fitted using Prism 8.0 (GraphPad). Equilibrium response (Req) data were fitted to a single-site interaction model to determine Kd: (1) Req=(CRmax/C+Kd)+B, where C is the analyte concentration and Rmax is the maximum response at saturation and B is the background resonance.

[2] = molecular target: VmFtsN^1-29-C-Atto 495 (Vibrio maritimus); assay: fluorescence polarisation; C-terminally truncated FtsA titrated (1:2 dilution series) into 20 nM Atto 495-labelled FtsN peptide; binding buffer with 0.05 % v/v Tween-20, RT; two-step model
[3] = molecular target: Vibrio maritimus FtsA residues 1-396 (VmFtsA^1-396) (Vibrio maritimus); assay: crystal structure; co-crystallisation of VmFtsA^1-396 at 3 mg/ml with 2 mM ATP and 0.353 mM VmFtsN^1-29; crystallisation at pH 8.5
[4] = molecular target: Vibrio maritimus FtsA residues 1-396 (VmFtsA^1-396) (Vibrio maritimus); assay: SPR; Biacore T200, FtsA immobilised on CM5 chip by amide coupling (2000-7800 RU), FtsN peptides injected 120 s in 1:2 dilution series; binding buffer (50 mM HEPES/KOH, 100 mM KAc, 5 mM MgAc2, pH 7.7); equilibrium response fitted to a single-site model
[5] = molecular target: the molecule itself; assay: co-sedimentation; co-pelleting: truncated FtsA at 1 mg/ml (~23 μM) with half, 1-, 3-, 6- or 10-fold molar FtsN peptide in binding buffer, 20°C, 20,000x g for 10 min, SDS-PAGE of supernatant and pellet
[6] = molecular target: T2, Vibrio maritimus FtsA residues 1-396 (VmFtsA^1-396) (Vibrio maritimus); assay: FP; two-step model, second transition (polymerisation)
T2 chain: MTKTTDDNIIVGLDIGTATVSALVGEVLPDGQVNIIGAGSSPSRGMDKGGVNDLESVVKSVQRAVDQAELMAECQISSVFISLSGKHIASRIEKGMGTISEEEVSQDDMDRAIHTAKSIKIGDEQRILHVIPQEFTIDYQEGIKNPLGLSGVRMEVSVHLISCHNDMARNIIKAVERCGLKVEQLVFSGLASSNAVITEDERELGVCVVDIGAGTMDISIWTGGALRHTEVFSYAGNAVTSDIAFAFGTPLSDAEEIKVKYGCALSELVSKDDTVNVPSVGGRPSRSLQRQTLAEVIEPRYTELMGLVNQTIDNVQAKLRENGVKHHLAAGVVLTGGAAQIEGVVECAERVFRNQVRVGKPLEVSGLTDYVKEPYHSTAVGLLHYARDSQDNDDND

[7] = molecular target: T2, Vibrio maritimus FtsA residues 1-396 …; assay: FP; two-step model, first transition (FtsN binding)
[8] = molecular target: T2, Vibrio maritimus FtsA residues 1-396 …; assay: AUC; two-step model, first transition (FtsN binding)
[9] = molecular target: T2, Vibrio maritimus FtsA residues 1-396 …; assay: AUC; two-step model, second transition (polymerisation)
[10] = molecular target: the molecule itself; assay: cryo-EM with 2D classification; EcFtsA at 0.15 mg/ml with 1 mM ATP on lipid monolayer, without FtsN peptide
[11] = ftsA^3x HA, Q155C mutant, exponential phase cells in PBS on ice, 10 min

With O=C1C=CC(=O)N1CCCCN1C(=O)C=CC1=O [BMB, 1,4-bismaleimidobutane] the “Covalent FtsA dimer after in vivo cross-linking, in words” value (“Covalent FtsA dimer” below) [1, 11] was “FtsA dimers can be detected”.

With O=C1C=CC(=O)N1CCCCCCN1C(=O)C=CC1=O [BMH, bismaleimidohexane] the “Covalent FtsA dimer” value [1, 11] was “FtsA dimers can be detected”.

For O=C1C=CC(=O)N1CCN1C(=O)C=CC1=O [BMOE, bismaleimidoethane], the “Covalent FtsA dimer” value ([1]; double cysteine mutants ftsA^3x HA, P98C, S118C and ftsA^3x HA, E199C, S252C) was “Signal for covalent FtsA dimers can be detected for both double cysteine mutants” and the “Covalent FtsA dimer” value [1, 11] was “but not with BMOE”.

With Cc1c(CBr)n2c(CBr)c(C)c(=O)n2c1=O [dBBr, dibromobimane] the “Covalent FtsA dimer” value ([1]; ftsA^3x HA, D123C mutant, exponential phase cells in PBS on ice, 10 min) was “Signal for a FtsA dimer can be detected”.

“MAQRDYVRRSQPAPSAASASTSRKKQRNLPAV [EcFtsN^1-32, ΔRK2]” showed a Kd (FtsA) of about 166 µM.

Work on “MAQRDYVRRSQPAPSRRKKSTSASAQRNLPAV [EcFtsN^1-32, ΔRK3]” yielded a Kd (FtsA) of about 80.6 µM.

“Vibrio maritimus FtsA residues 1-396 (VmFtsA^1-396) (domain or fragment)” gave a fold weaker for the first binding event than EcFtsA^1-405 with FtsN^(1-32-C-Atto 495) [2] of 4 fold and a stoichiometry N [3] of 4.

Molecule “Vibrio maritimus FtsN cytoplasmic peptide, residues 1-29 (VmFtsN^1-29)” has a fold weaker than the EcFtsA^1-405-EcFtsN^1-32 interaction [4] of 3 fold.

B1: E. coli FtsA residues 1-405 (EcFtsA^1-405) (domain or fragment, UniProt P0ABH0 1-405, looked up)
chain: MIKATDRKLVVGLEIGTAKVAALVGEVLPDGMVNIIGVGSCPSRGMDKGGVNDLESVVKCVQRAIDQAELMADCQISSVYLALSGKHISCQNEIGMVPISEEEVTQEDVENVVHTAKSVRVRDEHRVLHVIPQEYAIDYQEGIKNPVGLSGVRMQAKVHLITCHNDMAKNIVKAVERCGLKVDQLIFAGLASSYSVLTEDERELGVCVVDIGGGTMDIAVYTGGALRHTKVIPYAGNVVTSDIAYAFGTPPSDAEAIKVRHGCALGSIVGKDESVEVPSVGGRPPRSLQRQTLAEVIEPRYTELLNLVNEEILQLQEKLRQQGVKHHLAAGIVLTGGAAQIEGLAACAQRVFHTQVRIGAPLNITGLTDYAQEPYYSTAVGLLHYGKESHLNGEAEVEKRVTASV
notes: also called C-terminally truncated FtsA; source: E. coli C41(DE3), purified (HisTrap, SUMO cleavage with GST-SENP1, SEC); not shown: 6H-SUMO, N-terminal, cleaved
B1: binds [5].

In the case of MANRDYVRRGKGTSRRPAKKKTSGKKPWRC (Atto 495 (maleimide) on the added C-terminal cysteine) [VmFtsN^1-29-C-Atto 495], the Kd [6] is reported as 10 µM, the Kd [7] is reported as 0.062 µM and the Kd [8] is reported as 0.018 µM. The Kd [9] was 55 µM.

B2: E. coli FtsA (EcFtsA), full length (natural protein, UniProt P0ABH0 1-420, looked up)
chain: MIKATDRKLVVGLEIGTAKVAALVGEVLPDGMVNIIGVGSCPSRGMDKGGVNDLESVVKCVQRAIDQAELMADCQISSVYLALSGKHISCQNEIGMVPISEEEVTQEDVENVVHTAKSVRVRDEHRVLHVIPQEYAIDYQEGIKNPVGLSGVRMQAKVHLITCHNDMAKNIVKAVERCGLKVDQLIFAGLASSYSVLTEDERELGVCVVDIGGGTMDIAVYTGGALRHTKVIPYAGNVVTSDIAYAFGTPPSDAEAIKVRHGCALGSIVGKDESVEVPSVGGRPPRSLQRQTLAEVIEPRYTELLNLVNEEILQLQEKLRQQGVKHHLAAGIVLTGGAAQIEGLAACAQRVFHTQVRIGAPLNITGLTDYAQEPYYSTAVGLLHYGKESHLNGEAEVEKRVTASVGSWIKRLNSWLRKEF
notes: FtsA, E. coli, full length; also called WT; source: E. coli C41(DE3), purified (HisTrap, chitin resin with intein cleavage, SEC); not shown: intein-CBD-12H, C-terminal, cleaved
In the case of B2, the “stoichiometry N” value [10] is reported as 13 and 12.
